The target of the data set is T1, Ets1 280-441 (UniProt P14921 280-441).
T1 sequence: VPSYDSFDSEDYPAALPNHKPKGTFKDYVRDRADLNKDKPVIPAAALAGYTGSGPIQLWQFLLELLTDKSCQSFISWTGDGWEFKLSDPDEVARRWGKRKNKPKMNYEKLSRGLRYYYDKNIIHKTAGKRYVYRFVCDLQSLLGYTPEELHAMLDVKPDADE
Briefly: X-ray crystallography.

B1: stromelysin-1 EBS palindrome, crystal duplex (dsDNA)
DNA 1: CAGGAAGCACTTCCTG
DNA 2: GCAGGAAGTGCTTCCT
As to B1, the binding result was “binds”.

The values above are taken from publication PMC2928650.
